This is an account of results in patent US20210269552A1 (GO THERAPEUTICS, published 2021).

Changes are numbered by the printed parent chain. No end group written: not given here.

Assay [1] has as its target T1, MUC1 alanine library glycopeptide 8 (human, GalNAc-Serine / GalNAc-Threonine at the bold underlined positions of Table 10A (marking not preserved); the Ser-GalNAc at position 20 is replaced by alanine).
T1 construct: Position 20 (Ser-GalNAc) replaced by alanine
T1 peptide: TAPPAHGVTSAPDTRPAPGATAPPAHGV
The assay can be described thus: ELISA, peptide coated at 0.25 µg/ml, antibody supernatant; OD mutant peptide / OD wild type glycopeptide (SEQ ID NO:99). On the procedure:
(§1) Glycopeptides and relevant controls were diluted to 0.25 μg/ml in 0.2 M bicarbonate buffer pH 9.8 and 100 μl was plated onto each well of a high binding ELISA plate. Plates were then incubated overnight at 4° C. After discarding the coating buffer, the plate was blocked with 300 μl per well of blocking buffer (2.5% BSA in 1×PBS) for 1 hr at room temperature. Blocking buffer was then discarded, and 100 μl per well of antibody supernatant for each of 5E5, 1AG, and 4AG (diluted in blocking buffer) was added and incubated for 1 hr at room temperature. Antibody supernatant dilutions were previously optimized for each antibody (data not shown). Biotinylated Villa Villosa lectin (100 μl per well of 1 μg/ml in blocking buffer) was added to the plate as a control to detect the presence of GalNAc modified residues on the peptide. Plates were washed 3 times with 300 μl per well 1×TBS/0.05% Tween-20 (TBST). The secondary antibody Goat-anti mouse IgG (H+L)-HRP was diluted 1/5000 in blocking buffer and 100 μl of the diluted antibody was added per well and incubated on the plate for 1 hr at room temperature. Streptavidin-HRP was diluted 1/3000 in blocking buffer and 100 μl of the diluted streptavidin-HRP was added to wells containing the biotinylated lectin. Following secondary incubation, the plate was washed 4 times with 300 μl of TBST per well and then developed with 75 μl of room temperature 1-Step TMB substrate. After 1 minute, color development was stopped using 75 μl 2 N sulfuric acid. The plate was then read at 450 nm using a plate reader (Molecular Device SpectraMax i3).
Background: An ELISA detects its analyte on a solid surface through an enzyme-linked reagent.

The target in assay [2] is T2, MUC1 alanine library glycopeptide 9 (human, GalNAc-Serine / GalNAc-Threonine at the bold underlined positions of Table 10A (marking not preserved); the Thr-GalNAc at position 21 is replaced by alanine).
T2 construct: Position 21 (Thr-GalNAc) replaced by alanine
T2 peptide: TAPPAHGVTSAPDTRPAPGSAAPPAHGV
The description is as above. The method, then:
as §1

Assay [3] addresses T3, BSA (bovine, UniProt P02769).
T3 construct: commercial protein in control wells; also called bovine serum albumin
Put plainly: indirect ELISA on BSA blocked control wells, hybridoma supernatant, anti-mouse IgG-HRP, OD 450 nm. On the procedure:
(§2) ELISA plates were coated with MUC1 peptides titrated in 0.2 M bicarbonate buffer, pH 9.4 over night in concentrations ranging from 0.08 μg/ml to 10 μg/ml. BSA was used as a control/measure of background. The plates were then blocked with SuperBlock™ (Thermo Fisher) for 1 hr at room temperature. After plate washing, 1AG and 4AG hybridoma supernatants were incubated on the ELISA plate for 1 hour. The plates were then washed, and then incubated with secondary antibody (1/3000 Goat Anti-mouse IgG (H+L) HRP (abcam 62-6520)) for 1 hour. The plate was then washed and color was developed with 1-Step™ Ultra TMB (Thermo Fisher) for 2 minutes. Color development was then stopped with 2 N Sulfuric Acid. Absorbance at 450 nm was then measured.

The target of another assay is T4, Negative (none (non-glycosylated)).
T4 construct: also called Negative Control
T4 peptide: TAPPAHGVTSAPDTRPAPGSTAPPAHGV
The assay can be described thus: alanine-scan ELISA: peptides coated at 0.25 ug/ml, antibody supernatant, anti-mouse IgG-HRP; OD450 divided by OD450 on the wild-type peptide. The method, then:
as §1

For another assay, the target named is T5, Irrelevant Glycopeptide (GalNAc-Ser / GalNAc-Thr at the positions marked bold and underlined in Table 10B (the marking is lost in the text as given)).
T5 peptide: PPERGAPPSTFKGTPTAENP
The assay is described as above. On the procedure:
as §1

Assay [4] addresses T6, MUC1 alanine library glycopeptide 3 (human, GalNAc-Serine / GalNAc-Threonine at the bold underlined positions of Table 10A (marking not preserved)).
T6 construct: Position 15 (R) replaced by alanine
T6 peptide: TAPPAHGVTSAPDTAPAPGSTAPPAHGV
The assay is described as above. The method, then:
as §1

The next assay concerns the target T7, 2 (GalNAc-Ser / GalNAc-Thr at the positions marked bold and underlined in Table 10A (the marking is lost in the text as given)).
T7 construct: also called MUC1 alanine library glycopeptide 2; peptide 2
T7 peptide: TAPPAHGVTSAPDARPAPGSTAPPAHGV
The description is as above. The method, then: as §1

Assay [5] addresses T1, MUC1 alanine library glycopeptide 8. The assay is described as above. On the procedure: as §1
The next assay deals with T8, 1 (GalNAc-Ser / GalNAc-Thr at the positions marked bold and underlined in Table 10A (the marking is lost in the text as given)).
T8 construct: also called MUC1 alanine library glycopeptide 1; peptide 1
T8 peptide: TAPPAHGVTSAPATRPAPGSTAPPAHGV
The description is as above. On the procedure: as §1

Assay [6] addresses T9, MUC1 alanine library glycopeptide 12 (human, GalNAc-Serine / GalNAc-Threonine at the bold underlined positions of Table 10A (marking not preserved)).
T9 peptide: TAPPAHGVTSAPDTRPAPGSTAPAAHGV
Described as above. The method, then: as §1

Assay [7] has as its target T10, MUC1 alanine library glycopeptide 4 (human, GalNAc-Serine / GalNAc-Threonine at the bold underlined positions of Table 10A (marking not preserved)).
T10 construct: Position 16 (P) replaced by alanine
T10 peptide: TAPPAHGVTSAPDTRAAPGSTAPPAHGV
The assay is described as above. On the procedure:
as §1

The target in assay [8] is T11, Glycosylated peptide RPAPGSTAPPAHGVT (Table 5, SPR) (human, also: GalNAc at sites not preserved).
T11 construct: Printed without biotin
T11 peptide: RPAPGSTAPPAHGVT
The assay can be described thus: SPR, Biacore T200, antibody on chip, peptide injected in single-cycle 6.25-100 nM, 25 C. On the procedure: Binding of the 1AG and 4AG antibodies to one glycysolated and one non-glycosylated peptide (Table 5) was assessed by surface plasmon resonance (SPR).
All SPR experiments were performed on a Biacore T200 with a CM5 sensor chip with 10,000 RU anti-mouse antibody on each channel (GE Healthcare) at 25° C. with HBS-P+ as running and sample buffer (10 mM HEPES pH 7.4, 150 mM NaCl, 0.05% Tween 20, and 1 mg/ml BSA) and 10 mM glycine, pH 1.7 as regeneration buffer.
The 1AG and 4AG antibodies were immobilized as a 30 μg/mL solution in 10 mM sodium acetate, pH 5.0 using standard amine coupling chemistry (EDC/NHS activation). Antibody capture was performed using a 10× dilution into reaction buffer for 7 to 10 minutes at 5 μL/min. Immobilization levels of 600 to 1000 RU were used. […] The dissociation was monitored for 5 minutes to 30 minutes.

Assay [9] deals with T12, MUC1 alanine library glycopeptide 6 (human, GalNAc-Serine / GalNAc-Threonine at the bold underlined positions of Table 10A (marking not preserved)).
T12 construct: Position 18 (P) replaced by alanine
T12 peptide: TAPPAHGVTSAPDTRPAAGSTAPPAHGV
Put plainly: alanine-scan ELISA: peptides coated at 0.25 ug/ml, antibody supernatant, anti-mouse IgG-HRP; OD450 divided by OD450 on the wild-type peptide. The method, then: as §1

Assay [10] addresses T13, MUC1 alanine library glycopeptide 10 (human, GalNAc-Serine / GalNAc-Threonine at the bold underlined positions of Table 10A (marking not preserved)).
T13 construct: Position 22 (A) replaced by glycine
T13 peptide: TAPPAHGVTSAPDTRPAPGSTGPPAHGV
Described as above. On the procedure: as §1

Assay [11] has as its target T14, MUC1 alanine library glycopeptide 11 (human, GalNAc-Serine / GalNAc-Threonine at the bold underlined positions of Table 10A (marking not preserved)).
T14 construct: Position 23 (P) replaced by alanine
T14 peptide: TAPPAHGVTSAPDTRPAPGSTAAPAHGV
The description is as above. On the procedure: as §1

Assay [12] deals with T3, BSA. Put plainly: indirect ELISA, BSA control wells drawn on the peptide axis, hybridoma supernatant, anti-mouse IgG-HRP, OD 450 nm. The method, then: as §2

T3 sequence (P02769 25-607 limits assumed): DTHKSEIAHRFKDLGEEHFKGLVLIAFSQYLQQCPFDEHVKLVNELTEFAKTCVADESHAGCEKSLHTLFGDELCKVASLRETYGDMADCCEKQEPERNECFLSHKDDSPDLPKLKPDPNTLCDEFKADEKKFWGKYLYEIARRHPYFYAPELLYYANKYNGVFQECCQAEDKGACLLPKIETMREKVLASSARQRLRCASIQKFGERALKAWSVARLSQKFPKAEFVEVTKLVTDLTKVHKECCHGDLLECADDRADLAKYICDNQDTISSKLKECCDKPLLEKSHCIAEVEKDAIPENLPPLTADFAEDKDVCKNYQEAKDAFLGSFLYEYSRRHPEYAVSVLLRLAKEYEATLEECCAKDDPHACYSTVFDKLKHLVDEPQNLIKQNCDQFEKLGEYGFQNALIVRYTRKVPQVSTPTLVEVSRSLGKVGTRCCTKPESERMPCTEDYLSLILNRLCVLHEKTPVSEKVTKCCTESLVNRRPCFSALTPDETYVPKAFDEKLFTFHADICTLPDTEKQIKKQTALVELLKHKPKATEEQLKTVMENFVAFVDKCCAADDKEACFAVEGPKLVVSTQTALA

For 5E5 (antibody), the percent binding compared to the wild type peptide in assay [1] was 18%; in assay [2], 2.93%.

B1: 1AG (antibody, V domains shown)
VH: EVKLLESGGGLVQPGGSLKLSCAASGFDFSRDWMSWVRQAPGKGLEWIGEINPDSSTKNYTPSLKDKFIISRDNAKNTLFLQMSSVRSEDTALYYCATSHYYGLFGYWGQGTLVTVSA
VL: DIVLTQSPASLTVSLGQRATISCRASKSVSTSGYSYMHWYQQKPGQPPKLLIYLASYLESGVPARFSGSGSGTDFTLNIHPVEEEDAATYYCQHSRELPRTFGGGTKLEIK
notes: Mouse monoclonal antibody from Balb/c hybridoma; Used as hybridoma supernatant in the ELISAs; also called mAb 1AG; antibody 1AG
In general, Kd refers to a measure of binding affinity in units of concentration. What is called koff is the first-order rate constant of dissociation. High values mean fast dissociation, low ones slow dissociation. What is called kon is the second-order rate constant of association. Consider B1, for which the binding result in the assay with BSA [3] is on record as “no binding”; with Negative it was “no binding (tested: 0.25 ug/ml coating peptide)”; in the assay with Irrelevant Glycopeptide it was “no binding (tested: 0.25 ug/ml coating peptide)”; in assay [4], “binds”; in the assay with 2 it was “binds”; in [5] it was “no binding (tested: 0.25 ug/ml coating peptide)”. Besides, the binding result (with 1; in assay [6]; in assay [7]) was “binds” in each case. Besides, the “percent binding compared to the wild type peptide” value was determined as 2.23% in assay [1] and 6.07% in assay [2]. This molecule also showed a dissociation constant Kd in [8] of 37.3 nM. The molecule further returned a koff in assay [8] of 0.007 s⁻¹. The molecule further displayed a kon in assay [8] of 179000 M⁻¹ s⁻¹.

B2: 4AG (antibody, V domains shown)
VH: EVKLLESGGGLVQPGGSLKLSCVASGFDFSRYWMSWVRQAPGKGPEWIGEINPESNTMNYSPSLKEKFIISRDTAKNMLYLQMSKVRSEDTALYYCATSHHYGLFDYWGQGTLVTVSA
VL: B1 VL with T12A, S35N, M37I, Y91F, I110F
notes: Mouse monoclonal antibody from Balb/c hybridoma; Used as hybridoma supernatant in the ELISAs; also called mAb 4AG; antibody 4AG
As to B2, the entries for the “percent binding compared to the wild type peptide” value in assay [1] and in assay [2] were 1.63% and 14.6%, respectively. In addition, the binding result with Negative is on record as “no binding (tested: 0.25 ug/ml coating peptide)”; in the assay with Irrelevant Glycopeptide, “no binding (tested: 0.25 ug/ml coating peptide)”; in assay [4] it was “binds”; with 2, “binds”; in [9] it was “binds”; in assay [5], “no binding (tested: 0.25 ug/ml coating peptide)”. Also, the binding result in the assay with 1 is reported as “binds”; in [6], “binds”; in [7], “binds”; in assay [10] it was “binds”; in assay [11] it was “binds”; in the assay with BSA [12], “no binding (tested: 10 ug/ml on the peptide axis)”. This molecule had a Kd in assay [8] of 3.4 nM. The same molecule showed a koff in [8] of 0.00093 s⁻¹. In assay [8], the kon is 272000 M⁻¹ s⁻¹.
